Source: PMC8067709, “Crystal Structure of the Epo1-Bem3 Complex for Bud Growth” (International Journal of Molecular Sciences, 2021)

What was measured:
[1] = biological target: Scs2-Msp (1-128), N-His (Saccharomyces cerevisiae) (UniProt P40075); experiment: MST; Monolith NT.115; RED-tris-NTA labeled N-His Scs2-Msp (100 nM) with a serial dilution of Epo1, Bem3 or EB complex from 2 mM; 20 mM Tris-HCl pH 8.0, 150 mM NaCl, 4 mM MgCl2, 0.05% Tween 20
[2] = biological target: T1, Bem3^CC1 (1-99) with 6xHis tag, isolated protein (Saccharomyces cerevisiae, UniProt P32873 1-99); experiment: SPR
T1 chain: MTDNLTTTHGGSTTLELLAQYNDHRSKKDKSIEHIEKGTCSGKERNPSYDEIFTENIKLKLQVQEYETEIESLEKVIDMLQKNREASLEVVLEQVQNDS

[3] = biological target: Epo1^CC2-CC4 (746-943) with 6xHis tag, isolated protein (Saccharomyces cerevisiae); experiment: SEC-MALS; Superdex 200 10/300 with DAWN HELEOS II; 100 uL of 2-4 mg/mL protein; 20 mM Tris pH 8.0, 150 mM NaCl, 4 mM MgCl2
[4] = biological target: T2, Epo1^CC2-CC4 (746-943) with 6xHis tag, isolated protein; experiment: SPR; conditions: chain shown with the change;; parent: 72.65
T2 chain: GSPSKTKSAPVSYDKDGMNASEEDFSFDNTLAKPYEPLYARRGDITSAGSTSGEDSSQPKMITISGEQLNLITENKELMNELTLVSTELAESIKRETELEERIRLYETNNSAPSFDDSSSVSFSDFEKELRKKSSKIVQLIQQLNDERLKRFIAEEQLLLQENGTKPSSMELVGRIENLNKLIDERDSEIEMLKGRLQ

[5] = biological target: the molecule itself; experiment: SEC-MALS; Superdex 200 10/300 with DAWN HELEOS II; 100 uL of 2-4 mg/mL protein; 20 mM Tris pH 8.0, 150 mM NaCl, 4 mM MgCl2

Scs2-Msp (1-128), N-His (Saccharomyces cerevisiae), sequence (P40075 1-128): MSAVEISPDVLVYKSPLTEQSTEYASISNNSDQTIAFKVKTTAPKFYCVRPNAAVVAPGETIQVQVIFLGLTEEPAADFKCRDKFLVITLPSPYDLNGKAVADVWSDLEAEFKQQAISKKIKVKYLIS

Epo1^CC2-CC4-Bem3^CC1 complex (from UniProt P32873 1-99)
Kd [1]: 120 µM

B1: Epo1^CC2-CC4 (746-943) with 6xHis tag, isolated protein (domain or fragment)
chain: GSPSKTKSAPVSYDKDGMNASEEDFSFDNTLAKPYEPLYARRGDITSAGSTSGEDSSQPKMITISGEQLNLITENKELMNELTLVSTELAESIKRETELEERIRLYETNNSAPSFDDSSSVSFSDFEKELRKKSSKIVQLIQQLNDERLKRFIAEEQLLLQENGTKPSSMELVGRIENLNKLIDERDSEIEMLKGRLQ
Kd [2]: 72.7 µM | stoichiometry N [3]: 2 | Kd [1]: 170 µM

B2: Epo1-CC-K881A (domain or fragment)
chain: GSPSKTKSAPVSYDKDGMNASEEDFSFDNTLAKPYEPLYARRGDITSAGSTSGEDSSQPKMITISGEQLNLITENKELMNELTLVSTELAESIKRETELEERIRLYETNNSAPSFDDSSSVSFSDFEKELRKKSSAIVQLIQQLNDERLKRFIAEEQLLLQENGTKPSSMELVGRIENLNKLIDERDSEIEMLKGRLQ
Kd [2]: 375 µM

B3: Epo1CC2-CC4-Q888A (protein)
chain: GSPSKTKSAPVSYDKDGMNASEEDFSFDNTLAKPYEPLYARRGDITSAGSTSGEDSSQPKMITISGEQLNLITENKELMNELTLVSTELAESIKRETELEERIRLYETNNSAPSFDDSSSVSFSDFEKELRKKSSKIVQLIQALNDERLKRFIAEEQLLLQENGTKPSSMELVGRIENLNKLIDERDSEIEMLKGRLQ
modifications: Entity 1 of 6LP3 is Epo1 (YMR124W) 746-943, so entity position = residue number - 745 (Q888 = 143, K881 = 136, R876 = 131). Q888A is taken from the figure label; the text says Q884A and the legend Q88A. Epo1 CC2-CC4 alone is a homodimer in solution; one chain is given.
Kd [2]: 115 µM

B4: Bem3^CC1 (1-99) with 6xHis tag, isolated protein, P32873 R84A (protein)
chain: MTDNLTTTHGGSTTLELLAQYNDHRSKKDKSIEHIEKGTCSGKERNPSYDEIFTENIKLKLQVQEYETEIESLEKVIDMLQKNAEASLEVVLEQVQNDS
Kd [4]: 137 µM

B5: Bem3^CC1 (1-99) with 6xHis tag, isolated protein (domain or fragment, Saccharomyces cerevisiae, UniProt P32873 1-99, looked up)
chain: MTDNLTTTHGGSTTLELLAQYNDHRSKKDKSIEHIEKGTCSGKERNPSYDEIFTENIKLKLQVQEYETEIESLEKVIDMLQKNREASLEVVLEQVQNDS
notes: Bem3, Saccharomyces cerevisiae, residues 1-99 (CC1 domain); Dimer in solution by MALS; theoretical molecular mass printed as 11.39 kDa; also called N-His-unlabeled Bem3^CC1; wild-type (wt) Bem3^CC1; source: pET-22b construct, purified (Hitrap Q ion-exchange); not shown: 6xHis, N-terminal, kept
stoichiometry N [5]: 2
